From patent US20170015742A1 (published 2017)
Values belong to the binder of their own block, whether it stands above or below them.

What was measured:
[1] = biological target: VEGF-A (UniProt P15692-4 27-191, limits assumed); assay: SPR (Biacore), DVD-Ig captured by anti-human Fc, antigen injected
Experimental: (§1) For example, approximately 9000 RU of goat anti-human Fc specific polyclonal antibody (Thermo Fisher Scientific Inc., Rockford, Ill.) diluted in 10 mM sodium acetate (pH 4.5) is directly immobilized across a CM5 research grade biosensor chip using a standard amine coupling kit according to manufacturer's instructions and procedures at 25 μg/ml. Unreacted moieties on the biosensor surface were blocked with ethanolamine. For kinetic analysis, rate equations derived from the 1:1 Langmuir binding model were fitted simultaneously to multiple antigen injections (using global fit analysis) with the use of Scrubber 2 (BioLogic Software), Biacore Biaevaluation 4.0.1 software or Biacore T100 Evaluation software. Purified antibodies or DVD-Ig molecules were diluted in running buffer for capture across goat anti-human Fc reaction surfaces. Antibodies or DVD-Ig molecules to be captured as a ligand (1 μg/ml) were injected over reaction matrices at a flow rate of 10 μl/minute. During the assay, all measurements were referenced against the capture surface alone (i.e., with no captured antibody or DVD-Ig molecule). […] The equilibrium dissociation constant KD (M) of the reaction between antibodies and the target antigen was then calculated from the kinetic rate constants by the following formula: KD=Koff/Kₒₙ. Binding was recorded as a function of time and kinetic rate constants were calculated.

[2] = biological target: PDGF-BB (UniProt P01127 82-190); assay: as above
PDGF-BB, sequence (P01127 82-190): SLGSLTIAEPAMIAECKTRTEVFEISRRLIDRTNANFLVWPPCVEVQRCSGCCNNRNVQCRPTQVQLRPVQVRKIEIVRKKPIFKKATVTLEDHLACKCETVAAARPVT
Experimental: as §1

VEGF-A, sequence (P15692 other isoform, or with tags, fused parts or gaps limits assumed): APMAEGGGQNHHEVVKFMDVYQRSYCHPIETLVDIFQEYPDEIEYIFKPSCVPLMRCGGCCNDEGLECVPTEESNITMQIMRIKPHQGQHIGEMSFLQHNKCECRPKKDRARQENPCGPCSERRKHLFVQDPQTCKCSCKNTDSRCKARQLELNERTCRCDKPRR

B2: 3E2.1_GS_9E10.1 (PR-1612500) (bispecific antibody, human IgG1, kappa, L234A L235A)
heavy: EVQLVQSGAEVKKPGSSVKVSCKASGYTFTESYMYWVKQAPGQGLELIGRIDPEDGSTDYVEKFKNKATLTADKSTSTAYMELSSLRSEDTAVYFCARFGARSYFYPMDAWGQGTTVTVSSGGGGSGGGGSEIQLVQSGSELKKPGASVKVSCKASGYTFTNYGMYWVKQAPGQGLEYMGWIDTETGRPTYADDFKGRFVFSLDTSVSTAYLQISSLKAEDTAVYFCARWSGDTTGIRGPWFAYWGQGTLVTVSSASTKGPSVFPLAPSSKSTSGGTAALGCLVKDYFPEPVTVSWNSGALTSGVHTFPAVLQSSGLYSLSSVVTVPSSSLGTQTYICNVNHKPSNTKVDKKVEPKSCDKTHTCPPCPAPEAAGGPSVFLFPPKPKDTLMISRTPEVTCVVVDVSHEDPEVKFNWYVDGVEVHNAKTKPREEQYNSTYRVVSVLTVLHQDWLNGKEYKCKVSNKALPAPIEKTISKAKGQPREPQVYTLPPSREEMTKNQVSLTCLVKGFYPSDIAVEWESNGQPENNYKTTPPVLDSDGSFFLYSKLTVDKSRWQQGNVFSCSVMHEALHNAYTQKSLSLSPGK
light: ETVLTQSPATLSLSPGERATLSCRASESVSTLMHWYQQKPGQQPRLLIYGASNLESGVPARFSGSGSGTDFTLTISSLEPEDFAVYFCQQSWNDPWTFGGGTKVEIKGGSGGGGSGGDIRMTQSPSSLSASVGDRVTIECLASEDIYSDLAWYQQKPGKSPKLLIYNANGLQNGVPSRFSGSGSGTDYSLTISSLQPEDVATYFCQQYNYFPGTFGQGTKLEIKRTVAAPSVFIFPPSDEQLKSGTASVVCLLNNFYPREAKVQWKVDNALQSGNSQESVTEQDSKDSTYSLSSTLTLSKADYEKHKVYACEVTHQGLSSPVTKSFNRGEC
notes: DVD-Ig: outer hBFU-3E2.1 (PDGF), inner hBEW-9E10.1 (VEGF), linkers GS-H10 / GS-L10(dR); Human IgG1 L234A, L235A, H435A with kappa light chain
Kd [1]: 19 pM | kon [1]: 630000 M⁻¹ s⁻¹ | Kd [2]: ≤ 4.3 pM | kon [2]: ≥ 9e+07 M⁻¹ s⁻¹

B3: 3E2.1_GS_9E10.6 (PR-1612501) (bispecific antibody, human IgG1, kappa, L234A L235A)
heavy: EVQLVQSGAEVKKPGSSVKVSCKASGYTFTESYMYWVKQAPGQGLELIGRIDPEDGSTDYVEKFKNKATLTADKSTSTAYMELSSLRSEDTAVYFCARFGARSYFYPMDAWGQGTTVTVSSGGGGSGGGGSEVQLVQSGAEVKKPGSSVKVSCKASGYTFTNYGMYWVRQAPGQGLEWMGWIDTETGRPTYADDFKGRFTFTADKSTSTAYMELSSLRSEDTAVYYCARWSGDTTGIRGPWFAYWGQGTLVTVSSASTKGPSVFPLAPSSKSTSGGTAALGCLVKDYFPEPVTVSWNSGALTSGVHTFPAVLQSSGLYSLSSVVTVPSSSLGTQTYICNVNHKPSNTKVDKKVEPKSCDKTHTCPPCPAPEAAGGPSVFLFPPKPKDTLMISRTPEVTCVVVDVSHEDPEVKFNWYVDGVEVHNAKTKPREEQYNSTYRVVSVLTVLHQDWLNGKEYKCKVSNKALPAPIEKTISKAKGQPREPQVYTLPPSREEMTKNQVSLTCLVKGFYPSDIAVEWESNGQPENNYKTTPPVLDSDGSFFLYSKLTVDKSRWQQGNVFSCSVMHEALHNAYTQKSLSLSPGK
light: ETVLTQSPATLSLSPGERATLSCRASESVSTLMHWYQQKPGQQPRLLIYGASNLESGVPARFSGSGSGTDFTLTISSLEPEDFAVYFCQQSWNDPWTFGGGTKVEIKGGSGGGGSGGDIRMTQSPSSLSASVGDRVTITCLASEDIYSDLAWYQQKPGKSPKLLIYNANGLQNGVPSRFSGSGSGTDYTLTISSLQPEDVATYFCQQYNYFPGTFGQGTKLEIKRTVAAPSVFIFPPSDEQLKSGTASVVCLLNNFYPREAKVQWKVDNALQSGNSQESVTEQDSKDSTYSLSSTLTLSKADYEKHKVYACEVTHQGLSSPVTKSFNRGEC
notes: DVD-Ig: outer hBFU-3E2.1 (PDGF), inner hBEW-9E10.6 (VEGF), linkers GS-H10 / GS-L10(dR); Human IgG1 L234A, L235A, H435A with kappa light chain
Kd [1]: 41 pM | kon [1]: 570000 M⁻¹ s⁻¹ | Kd [2]: ≤ 5.3 pM | kon [2]: ≥ 9e+07 M⁻¹ s⁻¹

B5: 3E2.1_GS_4G8.5 (PR-1612499) (bispecific antibody, human IgG1, kappa, L234A L235A)
heavy: EVQLVQSGAEVKKPGSSVKVSCKASGYTFTESYMYWVKQAPGQGLELIGRIDPEDGSTDYVEKFKNKATLTADKSTSTAYMELSSLRSEDTAVYFCARFGARSYFYPMDAWGQGTTVTVSSGGGGSGGGGSEIQLVQSGSELKKPGASVKVSCKASGYTFTNYGMYWVRQAPGQGLEYMGWINTETGKPTYADDFKGRFVFSLDTSVSTAYLQISSLKAEDTAVYFCARTNYYYRSYIFYFDYWGQGTMVTVSSASTKGPSVFPLAPSSKSTSGGTAALGCLVKDYFPEPVTVSWNSGALTSGVHTFPAVLQSSGLYSLSSVVTVPSSSLGTQTYICNVNHKPSNTKVDKKVEPKSCDKTHTCPPCPAPEAAGGPSVFLFPPKPKDTLMISRTPEVTCVVVDVSHEDPEVKFNWYVDGVEVHNAKTKPREEQYNSTYRVVSVLTVLHQDWLNGKEYKCKVSNKALPAPIEKTISKAKGQPREPQVYTLPPSREEMTKNQVSLTCLVKGFYPSDIAVEWESNGQPENNYKTTPPVLDSDGSFFLYSKLTVDKSRWQQGNVFSCSVMHEALHNAYTQKSLSLSPGK
light: ETVLTQSPATLSLSPGERATLSCRASESVSTLMHWYQQKPGQQPRLLIYGASNLESGVPARFSGSGSGTDFTLTISSLEPEDFAVYFCQQSWNDPWTFGGGTKVEIKGGSGGGGSGGATQLTQSPSLSASVGDRVTITCRASESVSTHMHWYQQKPGKQPKLLIYGASNLESGVPSRFSGSGSGTDFTLTISSLQPEDFATYFCQQSWNDPFTFGQGTKLEIKRTVAAPSVFIFPPSDEQLKSGTASVVCLLNNFYPREAKVQWKVDNALQSGNSQESVTEQDSKDSTYSLSSTLTLSKADYEKHKVYACEVTHQGLSSPVTKSFNRGEC
notes: DVD-Ig: outer hBFU-3E2.1 (PDGF), inner hBDB-4G8.5 (VEGF), linkers GS-H10 / GS-L10(dR); Human IgG1 L234A, L235A, H435A with kappa light chain
Kd [1]: 170 pM | kon [1]: 240000 M⁻¹ s⁻¹ | Kd [2]: ≤ 3.8 pM | kon [2]: ≥ 9e+07 M⁻¹ s⁻¹

More lines, in order of falling Kd [1], values ahead:

Kd [1]: 320 pM | kon [1]: 350000 M⁻¹ s⁻¹ | Kd [2]: 1.8 pM | kon [2]: 8.4e+07 M⁻¹ s⁻¹
B4: 3E2.1_GS_1B10.1 (PR-1612502) (bispecific antibody, human IgG1, kappa, L234A L235A)
heavy: EVQLVQSGAEVKKPGSSVKVSCKASGYTFTESYMYWVKQAPGQGLELIGRIDPEDGSTDYVEKFKNKATLTADKSTSTAYMELSSLRSEDTAVYFCARFGARSYFYPMDAWGQGTTVTVSSGGGGSGGGGSEVQLVESGGGLVQPGGSLRLSCAASGFSFSKYDMAWFRQAPGKGLEWVASITTSGVGTYYRDSVKGRFTVSRDNAKSTLYLQMNSLRAEDTAVYYCARGYGAMDAWGQGTTVTVSSASTKGPSVFPLAPSSKSTSGGTAALGCLVKDYFPEPVTVSWNSGALTSGVHTFPAVLQSSGLYSLSSVVTVPSSSLGTQTYICNVNHKPSNTKVDKKVEPKSCDKTHTCPPCPAPEAAGGPSVFLFPPKPKDTLMISRTPEVTCVVVDVSHEDPEVKFNWYVDGVEVHNAKTKPREEQYNSTYRVVSVLTVLHQDWLNGKEYKCKVSNKALPAPIEKTISKAKGQPREPQVYTLPPSREEMTKNQVSLTCLVKGFYPSDIAVEWESNGQPENNYKTTPPVLDSDGSFFLYSKLTVDKSRWQQGNVFSCSVMHEALHNAYTQKSLSLSPGK
light: ETVLTQSPATLSLSPGERATLSCRASESVSTLMHWYQQKPGQQPRLLIYGASNLESGVPARFSGSGSGTDFTLTISSLEPEDFAVYFCQQSWNDPWTFGGGTKVEIKGGSGGGGSGGDIQMTQSPSSLSASVGDRVTITCKASQDIDDYLSWYQQKPGKSPKLVIYAATRLADGVPSRFSGSGSGTDYTLTISSLQPEDFATYYCLQSSSTPWTFGGGTKVEIKRTVAAPSVFIFPPSDEQLKSGTASVVCLLNNFYPREAKVQWKVDNALQSGNSQESVTEQDSKDSTYSLSSTLTLSKADYEKHKVYACEVTHQGLSSPVTKSFNRGEC
notes: DVD-Ig: outer hBFU-3E2.1 (PDGF), inner hBEW-1B10.1 (VEGF), linkers GS-H10 / GS-L10(dR); Human IgG1 L234A, L235A, H435A with kappa light chain

Kd [1]: 180 pM | kon [1]: 230000 M⁻¹ s⁻¹ | Kd [2]: 0.23 pM | kon [2]: 3.8e+07 M⁻¹ s⁻¹
B1: CL-33675_GS_4G8.5 (PR-1612496) (bispecific antibody, human IgG1, kappa, L234A L235A)
heavy: EVTLRESGPALVKPTQTLTLTCTFSGFSLSTYGMGVGWIRQPPGKALEWLANIWWDDDKYYNPSLKNRLTISKDTSKNQVVLTMTNMDPVDTATYYCARIESSGPKYSFDYWGQGTMVTVSSGGGGSGGGGSEIQLVQSGSELKKPGASVKVSCKASGYTFTNYGMYWVRQAPGQGLEYMGWINTETGKPTYADDFKGRFVFSLDTSVSTAYLQISSLKAEDTAVYFCARTNYYYRSYIFYFDYWGQGTMVTVSSASTKGPSVFPLAPSSKSTSGGTAALGCLVKDYFPEPVTVSWNSGALTSGVHTFPAVLQSSGLYSLSSVVTVPSSSLGTQTYICNVNHKPSNTKVDKKVEPKSCDKTHTCPPCPAPEAAGGPSVFLFPPKPKDTLMISRTPEVTCVVVDVSHEDPEVKFNWYVDGVEVHNAKTKPREEQYNSTYRVVSVLTVLHQDWLNGKEYKCKVSNKALPAPIEKTISKAKGQPREPQVYTLPPSREEMTKNQVSLTCLVKGFYPSDIAVEWESNGQPENNYKTTPPVLDSDGSFFLYSKLTVDKSRWQQGNVFSCSVMHEALHNAYTQKSLSLSPGK
light: EIVLTQSPGTLSLSPGERATLSCRASSGSIWYSFVSWYQQKPGQAPRLLIYADDQRASGIPDRFSGSGSGTDFTLTISRLEPEDFAVYYCQSYGINIDVVFGGGTKVEIKGGSGGGGSGGATQLTQSPSLSASVGDRVTITCRASESVSTHMHWYQQKPGKQPKLLIYGASNLESGVPSRFSGSGSGTDFTLTISSLQPEDFATYFCQQSWNDPFTFGQGTKLEIKRTVAAPSVFIFPPSDEQLKSGTASVVCLLNNFYPREAKVQWKVDNALQSGNSQESVTEQDSKDSTYSLSSTLTLSKADYEKHKVYACEVTHQGLSSPVTKSFNRGEC
notes: DVD-Ig: outer CL-33675 (PDGF), inner hBDB-4G8.5 (VEGF), linkers GS-H10 / GS-L10(dR); Human IgG1 L234A, L235A, H435A with kappa light chain
